Experimental data as given in patent US20200239555A1 (STATEN BIOTECHNOLOGY B V, published 2020).

B1: mAb3 (antibody, IgG1, V domains shown)
VH: QLVESGGGLVQPGGSLRLSCAASGFTFGTYSMRWVRQAPGKGLEWVSSIHTEGGGTAYRDSVKGRFTISRDNAKNTLYLQMNSLRAEDTAIYYCVIAGYSDWGQGTLVTVSS
VL: DIVMTQSPLSLPVTPGESASISCKTSQGLVHSDGKTYFYWFLQKPGQSPQQLIYQVSNRASGVPDRFTGSGSGTDFTLKISRVKAEDAGVYYCAHGTYYPHTFGQGTRLEIK
notes: Produced as full length IgG1 (kappa) in ExpiCHO-S cells; also called humanized anti-ApoC3 antibody mAb3
B2: mAb6 (antibody, IgG1, V domains shown)
VH: QLVESGGGLVQPGGSLRLSCAASGFTFGTYSMRWVRQAPGKGLEWVSSIHTEGGGTAYRDSVKGRFTISRDNAKNTLYLQMNSLRAEDTAVYYCVIAGYSDWGQGTLVTVSS
VL: DIVMTQSPLSLPVTPGESASISCKTSQGLVHSDGKTYFYWFLQKPGQSPQQLIYQVSNRASGVPDRFSGSGSGTDFTLKISRVKAEDAGVYYCAHGTYYPHTFGQGTRLEIK
notes: Produced as full length IgG1 (kappa) in ExpiCHO-S cells; also called humanized anti-ApoC3 antibody mAb6
B3: mAb7 (antibody, V domains shown)
VH: QLVESGGGLVQPGGSLRLSCAASGFTFSTYSMRWVRQAPGKGLEWVSSIHTGGGGTAYRDSVKGRFTISRDNAKNTLYLQMNNLRAEDTAIYYCVIAGYSDWGQGTLVTVSS
VL: DIVMTQSPLSLPVTPGESASISCKTSQGLVHSDGKTYFYWFLQKPGQSPQQLIYQVSNRASGVPDRFSGSGSGTDFTLKISRVKAEDAGVYYCAHGTYYPHTFGQGTRLEIK
notes: Produced as full length IgG1 (kappa) in ExpiCHO-S cells; also called humanized anti-ApoC3 antibody mAb7
B4: mAb10 (antibody, IgG1, V domains shown)
VH: QLVESGGGLVQPGGSLRLSCAASGFTFSTYSMRWVRQVPGKGLEWVSSIHTEGGGTAYRDSVKGRFTISRDNAKNTLYLQMNNLRAEDTAVYYCVIAGYSDWGQGTLVTVSS
VL: DIVMTQSPLSLSVVPGEPASISCKTSQGLVHSDGKTYFYWFLQKPGQSPQQLIYQVSNRASGVPDRFSGSGSGTDFTLKISRVEAEDVGVYYCAHGTYYPHTFGQGTRLEIK
notes: Produced as full length IgG1 (kappa) in ExpiCHO-S cells; also called humanized anti-ApoC3 antibody mAb10
B5: mAb11 (antibody, IgG1, V domains shown)
VH: QLVESGGGLVQPGGSLRLSCAASGFTFSTYSMRWVRQVPGKGLEWVSSIHTEGGGTAYRDSVKGRFTISRDNAKNTLYLQMNNLRAEDTAVYYCVIAGYSDWGQGTLVTVSS
VL: DIVMTQSPLSLSVTPGEPASISCKTSQGLVHSDGKTYFYWFLQKPGQSPQQLIYQVSNRASGVPDRFSGSGSGTDFTLKISRVEAEDVGVYYCAHGTYYPHTFGQGTRLEIK
notes: Produced as full length IgG1 (kappa) in ExpiCHO-S cells; also called humanized anti-ApoC3 antibody mAb11
B6: mAb8 (antibody, IgG1, V domains shown)
VH: QLVESGGGLVQPGGSLRLSCAASGFTFSTYSMRWVRQAPGKGLEWVSSIHTDAGGTAYRDSVKGRFTISRDNAKNTLYLQMNNLRAEDTAVYYCVIAGYSDWGQGTLVTVSS
VL: DIVMTQSPLSLSVVPGEPASISCKTSQGLVHSDGKTYFYWFLQKPGQSPQQLIYQVSNRASGVPDRFSGSGSGTDFTLKISRVEAEDVGVYYCAHGTYYPHTFGQGTRLEIK
notes: Produced as full length IgG1 (kappa) in ExpiCHO-S cells; also called humanized anti-ApoC3 antibody mAb8
B7: mAb9 (antibody, IgG1, V domains shown)
VH: QLVESGGGLVQPGGSLRLSCAASGFTFSTYSMRWVRQAPGKGLEWVSSIHTDAGGTAYRDSVKGRFTISRDNAKNTLYLQMNNLRAEDTAVYYCVIAGYSDWGQGTLVTVSS
VL: DIVMTQSPLSLSVTPGEPASISCKTSQGLVHSDGKTYFYWFLQKPGQSPQQLIYQVSNRASGVPDRFSGSGSGTDFTLKISRVEAEDVGVYYCAHGTYYPHTFGQGTRLEIK
notes: Produced as full length IgG1 (kappa) in ExpiCHO-S cells; also called humanized anti-ApoC3 antibody mAb9

How the values were obtained:
native human ApoC3 [1] = target: T1, native human ApoC3 (human, UniProt P02656 21-99); assay: SPR, ApoC3 over captured IgG1
T1 construct: also called nhuApoC3; native huApoC3
T1 sequence (P02656 21-99): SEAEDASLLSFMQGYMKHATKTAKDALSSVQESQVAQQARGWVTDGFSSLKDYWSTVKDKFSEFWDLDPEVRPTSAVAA
Protocol: (§1) An inverted SPR assay was designed in which a test antibody was captured on an SPR chip, human ApoC3 protein was injected, and binding of ApoC3 to the antibody was measured. […] The immobilization was performed in accordance with the method provided by Biacore/GE using the NHS/EDC kit (Biacore AB, Cat.nr. BR-1000-50): after activation of the chip, a solution of 30 μg/ml of anti-human Fcγ antibody in 10 mM acetate buffer with pH of 5.0 was prepared and injected until the surface density reached approximately 10000 RU. The analytical cycle comprised the following steps:
(§2) The resulting sensorgrams were analyzed using the BIAevaluation 4.1 software using Langmuir 1:1 binding model to derive binding kinetics. Data was zero adjusted, the reference cell sensorgrams were subtracted and the no analyte blank assay was used for double referencing the sensorgrams corresponding to the analyte injections. The dissociation and association phase sensorgrams were fitted separately for the 4 different concentration curves. Sensorgrams were excluded from the fitting if maximum RU values reached were below the detection limit of the equipment (<5 RU), Biacore 3000 (Biacore AB).

native human ApoC3 [2] = target: T1, native human ApoC3; assay: SPR, ApoC3 over captured IgG1, pH 5.5
Protocol: as §1, §2

[3] = target: T2, biotinylated native human ApoC3 (human, UniProt P02656 21-99, biotinylated (site not stated)); assay: SPR, IgG1 over biotinylated ApoC3 on SA chip, pH 5.5
T2 construct: also called biotinylated human ApoC3
T2 sequence (P02656 21-99): as above
Protocol: (§3) Biotinylated native human ApoC3 was captured on a streptavidin coated SPR chip (GE Healthcare, cat. nr. BR100032) at pH 7.4, in accordance with the method provided by Biacore, by injection of 20 μl 10 μg/ml biotinylated native human ApoC3 reaching the surface density of approximately 500 RU. 60 μL of test antibody in 1-50 nM range diluted in HBS-EP buffer (GE, cat # BR-1008-26; 0.010 M HEPES, 0.150M NaCl, 3 mM EDTA, 0.05% (v/v) surfactant P20, pH 7.4) was injected and passed through the flow cells at a flow rate of 30 μl/min, followed by an off-rate wash at pH7.4 for 5 min. After the dissociation, the flow cell surfaces were regenerated by injecting 10 μl of 10 mM NaOH/1 M NaCl and 10 μl of 10 mM glycine at pH1.5. The assay was repeated at pH5.5 using the same general protocol, where the running and sample dilution buffer was replaced by a HBS-EP buffer supplemented with citrate buffer to 10 mM final concentration and pH adjusted to 5.5.
(§4) The resulting sensorgrams were analyzed using the BIAevaluation 4.1 software using Langmuir 1:1 binding model to derive binding kinetics. Data was zero adjusted and the reference cell sensorgrams were subtracted. Sensorgrams were double referenced to no-analyte blank assay. Fitted parameters were considered not applicable if off-rate values were below the equipment's detection limit of kd: 1×10⁻⁶ 1/s.

[4] = target: T2, biotinylated native human ApoC3; assay: SPR, IgG1 over biotinylated ApoC3 on SA chip
Protocol: as §3, §4

[5] = target: T2, biotinylated native human ApoC3; assay: SPR, IgG1 over biotinylated ApoC3 on SA chip, pH 7.4
Protocol: as §3, §4

native human ApoC3 [6] = target: T1, native human ApoC3; assay: SPR, ApoC3 over captured IgG1, pH 7.4
Protocol: as §1, §2

Binder | KD (nM) pH5.5/pH7.4 (native human ApoC3 [1]) | Ka (native human ApoC3 [2]) [M⁻¹] | koff (native human ApoC3 [2]) [s⁻¹] | kon (native human ApoC3 [2]) [M⁻¹ s⁻¹] | Ka [3] [M⁻¹] | Kd [3] [nM] | koff [3] [s⁻¹] | kon [3] [M⁻¹ s⁻¹] | KD pH5.5/KD pH7.4 [4] | Ka [5] [M⁻¹] | koff [5] [s⁻¹] | kon [5] [M⁻¹ s⁻¹] | Ka (native human ApoC3 [6]) [M⁻¹] | koff (native human ApoC3 [6]) [s⁻¹] | kon (native human ApoC3 [6]) [M⁻¹ s⁻¹] | Kd [5] [nM]
B1 | 1.86 | 3.09e+06 | 0.033 | 102000 | 2.85e+09 | 0.35 | 0.000127 | 363000 | 3.19 | 9.11e+09 | 2.33e-05 | 212000 | 5.75e+06 | 0.00582 | 33400 | –
B2 | 5.22 | 1.16e+06 | 0.0802 | 93100 | 2.88e+09 | 0.35 | 0.000148 | 425000 | 5.79 | 1.67e+10 | 1.33e-05 | 222000 | 6.08e+06 | 0.00672 | 40900 | 0.06
B3 | 2.36 | 1.71e+06 | 0.0646 | 111000 | 2.05e+08 | – | 0.00321 | 656000 | 52.7 | 1.08e+10 | 3.37e-05 | 364000 | 4.05e+06 | 0.012 | 48500 | 0.09
B4 | 1.77 | 2.99e+06 | 0.0274 | 82100 | 3.7e+09 | – | 0.000113 | 417000 | 2.82 | 1.05e+10 | 2.12e-05 | 221000 | 5.3e+06 | 0.00601 | 31900 | 0.1
B5 | 3.9 | 1.99e+06 | 0.0405 | 80500 | 3.02e+09 | 0.33 | 0.000147 | 445000 | 1.91 | 5.77e+09 | 3.8e-05 | 219000 | 7.73e+06 | 0.00523 | 40400 | 0.17
B6 | 1 | 4.13e+06 | 0.0205 | 84600 | 1.34e+09 | 0.75 | 0.000367 | 490000 | 7.34 | 9.83e+09 | 2.41e-05 | 237000 | 4.15e+06 | 0.00772 | 32100 | 0.1
B7 | 2.33 | 1.85e+06 | 0.0467 | 86300 | 1.32e+09 | 0.76 | 0.000369 | 486000 | 5.09 | 6.71e+09 | 3.32e-05 | 223000 | 4.31e+06 | 0.00669 | 28800 | 0.15
